From patent US20220177547A1 (KYUNGPOOK NATIONAL UNIVERSITY INDUSTRY ACADEMIC COOPERATION …, published 2022)
One block for each binder: values may come before it.

How the values were obtained:
[1] = target: T1, Interleukin 4 receptor (IL4R) protein (UniProt P24394 26-232, limits assumed); assay: SPR, IL4R coupled to gold sensor chip, TRAIL-ATNC^IL4rP flowed 41.67 nM to 0.65 nM
T1 construct: Purified protein amine-coupled (NHS-EDC) to the SPR chip; The construct is not described
T1 sequence (looked up): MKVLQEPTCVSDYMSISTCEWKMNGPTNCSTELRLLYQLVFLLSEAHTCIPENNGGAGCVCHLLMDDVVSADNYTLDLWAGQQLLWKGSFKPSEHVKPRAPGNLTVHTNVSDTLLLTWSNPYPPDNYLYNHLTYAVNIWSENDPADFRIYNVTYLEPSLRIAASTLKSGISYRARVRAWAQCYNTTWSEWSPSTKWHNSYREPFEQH
Description: Interleukin 4 receptor (IL4R) protein was coupled to the surface of a gold sensor chip for surface resonance plasma (SPR) activated with NHS-EDC, and TRAIL-ATNC^IL4rP dissolved in TBS was flowed from 41.67 nM to 0.65 nM in half on the IL4R-coupled gold sensor chip to analyze binding kinetics. The right channel, which was not coated with IL4R, was used as a reference.

[2] = target: T2, TRAIL receptor protein Dr5 (UniProt O14763 56-182, limits assumed); assay: SPR, Dr5 coupled to gold sensor chip
T2 construct: Purified protein amine-coupled (NHS-EDC) to the SPR chip; The construct is not described
Description: (§1) The TRAIL receptor protein Dr5 was coupled to a surface of a gold sensor chip by flowing it on the surface of the gold sensor chip for surface resonance plasma (SPR) activated with NHS-EDC, and blocked with ethanolamine. The binding kinetics were analyzed by flowing TRAIL-ATNC dissolved in TBS from 8.33 nM to 0.52 nM by half, and TRAIL from 400 nM to 25 nM by half on the TRAIL receptor-coupled gold sensor chip, respectively. The right channel, which was not coated with Dr5, was used as a control (or reference).
It was determined that TRAIL-ATNC bound to the TRAIL receptor faster than TRAIL, and formed a stable complex in which dissociation was delayed after binding.

[3] = target: T2, TRAIL receptor protein Dr5; assay: SPR, Dr5 coupled to gold sensor chip, TRAIL-ATNC flowed 8.33 nM to 0.52 nM
Description: as §1

Kd [1]: 37.7 nM
B1: TRAIL-ATNC^IL4rP (other)
chain: MGSSHHHHHHSSGLVPRGSQHMVRERGPQRVAAHITGTRGRSNTLSSPNSKNEKALGRKINSWESSRSGHSFLSNLHLRNGELVIHEKGFYYIYSQTYFRFQEEIKENTKNDKQMVQYIYKYTSYPDPILLMKSARNSCWSKDAEYGLYSIYQGGIFELKENDRIFVSVTNEHLIDMDHEASFFGAFLVGGSGGGSGEFEALQGQVQHLQAAFSQYKKVELFPVDGGGGAEAAAKEAAAKTSDSEAAINRQINLELYASYVYLSMSYYFDRDDVALKNFAKYFLHQSHEEREHAEKLMKLQNQRGGRIFLQDIKKPDCDDWESGLNAMECALHLEKNVNQSLLELHKLATDKNDPHLCDFIETHYLNEQVKAIKELGDHVTNLRKMGAKLGGGSGGPLGLAGGGGSGCRKRLDRNC
notes: Ferritin nanocage of 24 fusion polypeptides; It was expressed from pET-28a and purified on Ni-NTA; also called TRAIL trimer fusion protein expressed on the cancer-targeting ferritin nanocage

fold higher kon than TRAIL alone [2]: ~10 fold
fold lower KD than TRAIL [2]: ~100 fold
fold lower koff than TRAIL alone [2]: ~10 fold
Kd [3]: 0.411 nM
koff [3]: 0.000217 s⁻¹
kon [3]: 529000 M⁻¹ s⁻¹
B2: TRAIL-ATNC (Active Trimer Nanocage) (other)
chain: MGSSHHHHHHSSGLVPRGSQHMVRERGPQRVAAHITGTRGRSNTLSSPNSKNEKALGRKINSWESSRSGHSFLSNLHLRNGELVIHEKGFYYIYSQTYFRFQEEIKENTKNDKQMVQYIYKYTSYPDPILLMKSARNSCWSKDAEYGLYSIYQGGIFELKENDRIFVSVTNEHLIDMDHEASFFGAFLVGGSGGGSGEFEALQGQVQHLQAAFSQYKKVELFPVDGGGGAEAAAKEAAAKTSDSEAAINRQINLELYASYVYLSMSYYFDRDDVALKNFAKYFLHQSHEEREHAEKLMKLQNQRGGRIFLQDIKKPDCDDWESGLNAMECALHLEKNVNQSLLELHKLATDKNDPHLCDFIETHYLNEQVKAIKELGDHVTNLRKMGAKL
notes: It was expressed from pET-28a and purified on Ni-NTA; also called TRAIL-attached nanocage
